Assay results: publication doi:10.1101/2025.11.10.687720, “Magnetosome organelles are organized through interactions between McaA and McaB that alter the dynamics of the bacterial actin-like protein MamK” (bioRxiv, 2025)

Target: the molecule itself
Assay: co-sedimentation; pelleting assay, each protein at 1 μM in polymerization buffer (10 mM Tris-HCl pH 7.5, 25 mM KCl, 2 mM MgCl2, 1 mM DTT) with or without 1 mM ATP, 25°C for 10 min, 100,000 x g for 30 min at 4°C; SDS-PAGE of pellet and supernatant

B1: untagged recombinant MamK (natural protein, Magnetospirillum magneticum AMB-1, UniProt Q2W8Q6 1-347, looked up)
chain: MSEGEGQAKNRLFLGIDLGTSHTAVMSSRGKKFLLKSVVGYPKDVIGLKLLGRPYVVGDEAFEMRSYLDIRYPLQDGVLSEISDRDIEVARHLLTHVVKSAEPGPNDEICAVIGVPARASAANKALLLKMAQEVVHTALVVSEPFMVGYGLDKLINTIIVDIGAGTTDICALKGTVPGPEDQVTLTKAGNYVDERLQNAILERHPELQMNVNVACAVKEQFSFVGTPTEVASFEFRAAGKPVRADVTEPVKIACEALMPDIIESIETLLRSFQPEYQATVLQNIVFAGGGSRIRGLAAYVKEKLRPFGDANVTCVKDPTFDGCRGALRLAEELPPQYWRQLGDVSGS
notes: MamK, bacterial actin-like protein; 37.6 kDa as printed; The monomeric fractions were pooled; the protein forms filaments with ATP; also called purified MamK; MamK filaments; source: E. coli BL21, purified (ammonium sulfate precipitation, anion exchange, gel filtration)
  binding result: binds
